Measurements: US20240287190A1 (THERANOTICS, published 2024)
Like-named read-outs stand apart in the source and are kept apart here.

Key:
[1] = target: T1, recombinant human TGFβ1 protein (R&D Systems, Cat #7754-BH-025/CF) (human, UniProt P01137 279-390); test: bridging ELISA on plate-coated TGFβ1, detected with His-tag human B7-H3; paragraph 158 says the mono antibodies are not bound to TGFβ1
T1 construct: Bought protein

[2] = target: T1, recombinant human TGFβ1 protein (R&D …); test: as above; remark: listed apart in the source

T1 sequence (P01137 279-390 limits assumed): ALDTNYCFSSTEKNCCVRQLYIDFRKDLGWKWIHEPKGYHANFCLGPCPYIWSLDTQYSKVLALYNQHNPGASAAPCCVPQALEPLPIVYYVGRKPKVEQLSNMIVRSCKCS

Binder	binding result [1]	binding result [2]
#5 (mono) B7-H3 mono antibody free of TGFβ binding portion (antibody, human IgG1, N297A, V domains shown) VH: EVQLLESGGGLVQPGGSLRLSCAASGFTFSTYAMSWVRQAPGKGLEWVSAISGSGGSTLYADSVKGRFTISRDNSKNTLYLQMNSLRAEDTAVYYCARGGSATWAFDLWGQGTLVTVSS VL: QSVLTQPPSASGTPGQRVTISCSGSSSNIGSNYVYWYQQLPGTAPKLLIYRNNQRPSGVPDRFSGSKSGTSASLAISGLRSEDEADYYCGTWDSSLSGVVFGGGTKLTVL	no binding	–
#6 (mono) B7-H3 mono antibody free of TGFβ binding portion (antibody, human IgG1, N297A, V domains shown) VH: EVQLLESGGGLVQPGGSLRLSCAASGFTFSTYAISWVRQAPGKGLEWVSSIYYSGYTHYNPSLESRFTISRDNSKNTLYLQMNSLRAEDTAVYYCARGYSGWMDVWGQGTLVTVSS VL: QSVLTQPPSASGTPGQRVTISCGGNNIGSKSVHWYQQLPGTAPKLLIYDNNKRPSGVPNRFSGSKSGTSASLAISGLRSEDEADYYCAAWDDSLNVPVFGGGTKLTVL	–	no binding
#7 (mono) B7-H3 mono antibody free of TGFβ binding portion (antibody, human IgG1, N297A, V domains shown) VH: EVQLLESGGGLVQPGGSLRLSCAASGFTFSNFWIGWVRQAPGKGLEWVSWINPPGSITSYADSVKGRFTISRDNSKDTLYLQMNSLRAEDTAVYYCAREVGDVLDYWGQGTLVTVSS VL: QSVLTQPPSASGTPGQRVTISCTGTSSDIGRYNYVSWYQQLPGTAPKLLIYRNTQRPSGVPDRFSGSKSGTSASLAISGLRSEDEADYYCGTWDSSLNAYVFGGGTKLTVL	–	no binding
#8 (mono) B7-H3 mono antibody free of TGFβ binding portion (antibody, human IgG1, N297A, V domains shown) VH: EVQLLESGGGLVQPGSSLRLSCAASGFTFSSYWISWVRQAPGKGLEWVSEISPSGNTNYNPSLKSRFTISRDNSKNTLYLQMNSLRAEDTAVYYCAREVGDLLDYWGQGTLVTVSS VL: QSVLTQPPSASGTPGQRVTISCSGSNIGNNYVSWYQQLPGTAPKLLIYQDSKRPSGVPDRFSGSKSGTSASLAISGLRSEDEADYYCLVWDRSSDHFVFGGGTKLTVL	–	no binding
#9 (mono) B7-H3 mono antibody free of TGFβ binding portion (antibody, human IgG1, N297A, V domains shown) VH: EVQLLESGGGLVQPGGSLRLSCAASGFTFSSYAMNWVRQAPGKGLEWVSTISGSGGQTYYADSVKGRFTISRDNSKNTLYLQMNSLRAEDTAVYYCARWRSIWAFDYWGQGTLVTVSS VL: QSVLTQPPSASGTPGQRVTISCSDNNIGSKSVHWYQQLPGTAPKLLIYDNNKRPSGVPDRFSGSKSGTSASLAISGLRSEDEADYYCGTWDDSLSGPVFGGGTKLTVL	–	no binding
